From patent US20240049668A1 (VILMORIN AND CIE, published 2024)
Like-named read-outs stand apart in the source and are kept apart here.

T1: Movement Protein of ToBRFV (Tomato Brown Rugose Fruit Virus …, UniProt A0A0S2SZW1 1-266)
T1 sequence: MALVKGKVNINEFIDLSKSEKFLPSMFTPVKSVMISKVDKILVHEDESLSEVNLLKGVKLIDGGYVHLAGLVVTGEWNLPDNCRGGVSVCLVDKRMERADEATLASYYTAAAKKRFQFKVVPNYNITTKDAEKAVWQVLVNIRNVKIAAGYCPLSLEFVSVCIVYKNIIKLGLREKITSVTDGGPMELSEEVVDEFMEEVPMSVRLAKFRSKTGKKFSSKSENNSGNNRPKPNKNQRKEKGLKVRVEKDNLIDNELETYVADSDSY

B1: TM2-14-25 encoded by Tm2-14-25 (receptor)
chain: MAEILLTSVINKSVEIAGNLLIQEGKRLYWLKEDIDWLQREMRHIRSYVDNAKAKEAGGDSRVKNLLKDIQELAGDVEDLLDDFLPKIQQSNKFNYCLKRSSFADEFAMEIEKIKRRVVDIDRIRKTYNIIDTDNNNDDCVLLDRRRLFLHADETEIIGLDDDFNMLQAKLLNQDLHYGVVSIVGMPGLGKTTLAKKLYRLIRDQFECSGLVYVSQQPRASEILLDIAKQIGLTEQKMKENLEDNLRSLLKIKRYVILLDDIWDVEIWDDLKLVLPECDSKVGSRMIITSRNSNVGRYIGGESSLHALQPLESEKSFELFTKKIFNFDDNNSWANASPDLVNIGRNIVGRCGGIPLAIVVTAGMLRARERTEHAWNRVLESMGHKVQDGCAKVLALSYNDLPIASRPCFLYFGLYPEDHEIRAFDLINMWIAEKFIVVNSGNRREAEDLAEDVLNDLVSRNLIQLAKRTYNGRISSCRIHDLLHSLCVDLAKESNFFHTAHDAFGDPGNVARLRRITFYSDNVMIEFFRSNPKLEKLRVLFCFAKDPSIFSHMAYFDFKLLHTLVVVMSQSFQAYVTIPSKFGNMTCLRYLRLEGNICGKLPNSIVKLTRLETIDIDRRSLIQPPSGVWESKHLRHLCYRDYGQACNSCFSISSLYPNIYSLHPNNLQTLMWIPDKFFEPRLLHRLINLRKLGILGVSNSTVKMLSIFSPVLKALEVLKLSFSSDPSEQIKLSSYPHIAKLHLNVNRTMALNSQSFPPNLIKLTLAYFSVDRYILAVLKTFPKLRKLKMFICKYNEEKMDLSGEANGYSFPQLEVLHIHSPNGLSEVTCTDDVSMPKLKKLLLTGFHRRISLSERLKKLSK
B2: TM-2-2 protein (product of the Tm-2-2 gene) (receptor)
chain: MAEILLTSVINKSVEIAGNLLIQEGKRLYWLKEDIDWLQREMRHIRSYVDNAKAKEAGGDSRVKNLLKDIQELAGDVEDLLDDFLPKIQQSNKFNYCLKRSSFADEFAMEIEKIKRRVVDIDRIRKTYNIIDTDNNNDDCVLLDRRRLFLHADETEIIGLDDDFNMLQAKLLNQDLHYGVVSIVGMPGLGKTTLAKKLYRLIRDQFECSGLVYVSQQPRASEILLDIAKQIGLTEQKMKENLEDNLRSLLKIKRYVILLDDIWDVEIWDDLKLVLPECDSKVGSRMIITSRNSNVGRYIGGESSLHALQPLESEKSFELFTKKIFNFDDNNSWANASPDLVNIGRNIVGRCGGIPLAIVVTAGMLRARERTEHAWNRVLESMGHKVQDGCAKVLALSYNDLPIASRPCFLYFGLYPEDHEIRAFDLINMWIAEKFIVVNSGNRREAEDLAEDVLNDLVSRNLIQLAKRTYNGRISSCRIHDLLHSLCVDLAKESNFFHTAHDAFGDPGNVARLRRITFYSDNVMIEFFRSNPKLEKLRVLFCFAKDPSIFSHMAYFDFKLLHTLVVVMSQSFQAYVTIPSKFGNMTCLRYLRLEGNICGKLPNSIVKLTRLETIDIDRRSLIQPPSGVWESKHLRHLCYRDYGQACNSCFSISSFYPNIYSLHPNNLQTLMWIPDKFFEPRLLHRLINLRKLGILGVSNSTVKMLSIFSPVLKALEVLKLSFSSDPSEQIKLSSYPHIAKLHLNVNRTMALNSQSFPPNLIKLTLAYFSVDRYILAVLKTFPKLRKLKMFICKYNEEKMDLSGEANGYSFPQLEVLHIHSPNGLSEVTCTDDVSMPKLKKLLLTGFHCRISLSERLKKLSK
B3: TM2-467 encoded by Tm2-467 (receptor)
chain: MAEILLTSVINKSVEIAGNLLIQEGKRLYWLKEDIDWLQREMRHIRSYVDNAKAKEAGGDSRVKNLLKDIQELAGDVEDLLDDFLPKIQQSNKFNYCLKRSSFADEFAMEIEKIKRRVVDIDRIRKTYNIIDTDNNNDDCVLLDRRRLFLHADETEIIGLDDDFNMLQAKLLNQDLHYGVVSIVGMPGLGKTTLAKKLYRLIRDQFECSGLVYVSQQPRASEILLDIAKQIGLTEQKMKENLEDNLRSLLKIKRYVILLDDIWDVEIWDDLKLVLPECDSKVGSRMIITSRNSNVGRYIGGESSLHALQPLESEKSFELFTKKIFNFDDNNSWANASPDLVNIGRNIVGRCGGIPLAIVVTAGMLRARERTEHAWNRVLESMGHKVQDGCAKVLALSYNDLPIASRPCFLYFGLYPEDHEIRAFDLINMWIAEKFIVVNSGNRREAEDLAEDVLNDLVSRNLIQLAKRTYNGRISSCRIHDLLHSLCVDLAKESNFFHTAHDAFGDPGNVARLRRITFYSDNVMIEFFRSNPKLEKLRVLFCFAKDPSIFSHMAYFDFKLLHTLVVVMSQSFQAYVTIPSKFGNMTCLRYLRLEGNICGKLPNSIVKLTRLETIDIDRRSLIQPPSGVWESKHLRHLCYRDYGQACNSCFSISSFYPNIYSLHPNNLQTLMWIPDKFFEPRLLHRLINLRKLGILGVSNSTVKMLSIFSPVLKALEVLKLSFSSDPSEQIKLSSYPHIAKLHLNVNRTMALNSQSFPPNLIKLTLAYFSVDRYILAVLKTFPKLRKLKMFICKYNEEKMDLSGEANGYSFPQLEVLHIHSPNGLSEVTCTDDVSMPKLKKLLLTGFHRRISLSERLKKLSK

Columns and labels:
Test in all cases: cell-based or functional assay
[1] = molecular target: T1, Movement Protein of ToBRFV
[2] = molecular target: T1, Movement Protein of ToBRFV; remark: listed apart in the source
[3] = molecular target: T1, Movement Protein of ToBRFV; remark: listed apart in the source
[4] = molecular target: T1, Movement Protein of ToBRFV; remark: listed apart in the source
[5] = molecular target: T1, Movement Protein of ToBRFV; remark: listed apart in the source
[6] = molecular target: T1, Movement Protein of ToBRFV; remark: listed apart in the source

| Binder | HR when expressed with MP Rugose [1] | HR to MP Rugose [2] | HR to MP Rugose [3] | HR when expressed with MP Rugose [4] | HR to MP Rugose [5] | HR to MP Rugose [6] |
| --- | --- | --- | --- | --- | --- | --- |
| B1 | 4 HR scale 0-4 | 3 HR scale 0-4 | 4 HR scale 0-4 |  |  |  |
| B2 | < 1 HR scale 0-4 | < 1 HR scale 0-4 | < 1 HR scale 0-4 | < 1 HR scale 0-4 | < 1 HR scale 0-4 | < 1 HR scale 0-4 |
| B3 | 4 HR scale 0-4 |  |  |  |  |  |
